Measurements published in paper PMC4027212.

Target: FANCI (human, UniProt Q9NVI1 1-1328)
Assay: EMSA

Chain of FANCI (Q9NVI1 whole entry): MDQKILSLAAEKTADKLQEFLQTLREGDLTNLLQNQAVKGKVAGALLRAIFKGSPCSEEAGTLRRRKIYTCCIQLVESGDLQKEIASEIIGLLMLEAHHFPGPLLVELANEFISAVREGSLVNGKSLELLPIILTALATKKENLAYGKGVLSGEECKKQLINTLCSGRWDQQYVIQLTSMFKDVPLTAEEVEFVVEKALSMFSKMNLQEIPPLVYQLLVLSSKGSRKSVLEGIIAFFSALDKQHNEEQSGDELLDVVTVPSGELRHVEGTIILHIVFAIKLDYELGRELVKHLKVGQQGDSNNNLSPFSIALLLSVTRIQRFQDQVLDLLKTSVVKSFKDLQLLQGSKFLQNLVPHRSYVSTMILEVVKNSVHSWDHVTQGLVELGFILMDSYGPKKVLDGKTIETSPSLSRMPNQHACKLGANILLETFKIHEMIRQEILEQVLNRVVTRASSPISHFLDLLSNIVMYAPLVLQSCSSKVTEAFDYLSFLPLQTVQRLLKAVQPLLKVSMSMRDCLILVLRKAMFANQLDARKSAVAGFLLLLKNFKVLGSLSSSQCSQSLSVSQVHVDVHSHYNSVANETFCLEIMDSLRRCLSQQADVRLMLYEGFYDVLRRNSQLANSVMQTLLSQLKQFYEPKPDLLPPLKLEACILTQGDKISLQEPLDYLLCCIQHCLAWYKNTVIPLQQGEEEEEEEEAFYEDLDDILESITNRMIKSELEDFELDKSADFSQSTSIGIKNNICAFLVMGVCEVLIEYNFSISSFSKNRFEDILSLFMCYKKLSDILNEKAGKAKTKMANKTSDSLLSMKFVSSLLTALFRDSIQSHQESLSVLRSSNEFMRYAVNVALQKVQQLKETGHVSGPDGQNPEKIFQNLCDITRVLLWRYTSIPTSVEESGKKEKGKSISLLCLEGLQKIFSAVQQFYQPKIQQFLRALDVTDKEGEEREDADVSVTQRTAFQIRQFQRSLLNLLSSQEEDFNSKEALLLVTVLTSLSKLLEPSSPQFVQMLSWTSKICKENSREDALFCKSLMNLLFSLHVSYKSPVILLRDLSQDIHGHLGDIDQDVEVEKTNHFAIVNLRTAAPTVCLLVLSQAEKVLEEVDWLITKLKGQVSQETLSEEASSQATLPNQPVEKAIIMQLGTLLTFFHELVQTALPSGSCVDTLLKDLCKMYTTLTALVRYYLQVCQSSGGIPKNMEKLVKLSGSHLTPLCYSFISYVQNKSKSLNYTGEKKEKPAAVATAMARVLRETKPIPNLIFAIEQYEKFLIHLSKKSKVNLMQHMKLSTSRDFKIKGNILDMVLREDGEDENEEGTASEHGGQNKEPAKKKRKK

B1: Splayed arm (O2+O9) (structured_DNA)
DNA 1: AAAAAAAAAAAAAAAAAAAAAAAAAAAAAAAAAAAAAAAAGTAGAGTCGACGGTGCTGGGATCCAACATGTTTTCAATCTG
DNA 2: CAGATTGAAAACATGTTGGATCCCAGCACCGTCGACTCTACAAAAAAAAAAAAAAAAAAAAAAAAAAAAAAAAAAAAAAAA
Q: Does B1 bind?
A: binds
